Biological target: C-domain fragment of human calmodulin (residues 76-148), calcium-free (apo) (human, UniProt P0DP23 77-149)
Assay: NMR backbone assignment and chemical shift perturbation

B1: Human voltage-dependent sodium channel NaV1.2 IQ motif peptide (residues 1901-1927 with N-terminal GPGS) (peptide)
chain: GPGSKRKQEEVSAIIIQRAYRRYLLKQKVKK
binding result: binds

Reference: publication PMC5791537 (Biomolecular NMR assignments, 2017)
